Measured values taken from patent US20240254204A1 (NATIONAL UNIVERSITY OF SINGAPORE, published 2024).
Residue numbers refer to the chain shown, from its start. Values joined by “and” are separate entries in the source; they are usually repeats but may differ in a detail not shown here. Identical values can stand only once.

How the values were obtained:
Experiment in all cases: cell-based or functional assay
WIV-1 full-length spike = WIV-1 full-length spike (SC1r-CoV WIV-1)
[1] = biological target: SARS-COV-1 full-length spike (SARS-CoV)
[2] = biological target: SARS-COV-2 Wuhan-hu-1 (ancestral) full-length spike (SARS-CoV-2)

Measured: pseudovirus neutralization NT50

B1: Antibody 11 (SS6V11-E7) (antibody, V domains shown)
VH: QVQLQESGPGLVKPSETLSLTCTVSGGFIGPHYWSWVRQPPGKGLEWIGYIYISGSTNYNPSLKSRLTISVDMSKSQFSLTLSSATAADTAVYYCARGGGYLETGPFEYWGQGTLVTVSS
VL: DIVMTQSPLSLPVTPGEPASISCRSSQSLLQNNGYNYLAWYLQKPGQSPQLLIYLSSTRASGVPDRFSGSGSGTDFTLKISRVEAEDVGVYYCMQSLQIPGTFGQGTRLEIK
< 10 ng/ml and < 0.067 nM: WIV-1 full-length spike | [1] | [2]

B2: Antibody 20 (SS6V20-F5) (antibody, V domains shown)
VH: QVQLQESGPGLVKPSETLSLTCTVSGGSIIGYYWSWIRQPPGKGLEWIGYIYFSANTNYNPSLKSRVTMSVDMSKKQFSLKLRSVTAADTAVYYCARGGGYLETGPLDFWGQGILVTVSS
VL: B1 VL with L30M, N32L, K44R, S56G, S81T, S96G
< 10 ng/ml and < 0.067 nM: WIV-1 full-length spike | [1] | [2]

B3: Antibody 13 (SS6V13-F1) (antibody, V domains shown)
VH: QVQLQESGPGLVKPSETLSLTCSVSGVSILGSYWGWIRQPPGTGLQWIGYIYFSENTNYNPSLQSRVTMSLDTSKNLLSLKLSSVTAADTAVYYCARGGGYLETGPFDSWGQGTLVTVSS
VL: B1 VL with S28G, L30V, N32S, S56G, T58N, S96G, I99T
< 10 ng/ml and < 0.067 nM: WIV-1 full-length spike | [1] | [2]
